Source: paper PMC3792639, “Complex structure of type VI peptidoglycan muramidase effector and a cognate immunity protein” (Acta Crystallographica Section D: Biological Crystallography, 2013)

T1: Tse3 (type VI secretion exported 3), native recombinant protein (P. aeruginosa, UniProt Q9HYC5 1-408)
T1 construct: Tse3, type VI secretion exported 3, peptidoglycan muramidase effector of Pseudomonas aeruginosa; full-length, synthetic gene in pET-22b (NdeI/XhoI); Removal of the His tag is not mentioned; also called muramidase effector; source: E. coli BL21(DE3), purified (Ni-NTA, cation exchange, SEC)
T1 sequence: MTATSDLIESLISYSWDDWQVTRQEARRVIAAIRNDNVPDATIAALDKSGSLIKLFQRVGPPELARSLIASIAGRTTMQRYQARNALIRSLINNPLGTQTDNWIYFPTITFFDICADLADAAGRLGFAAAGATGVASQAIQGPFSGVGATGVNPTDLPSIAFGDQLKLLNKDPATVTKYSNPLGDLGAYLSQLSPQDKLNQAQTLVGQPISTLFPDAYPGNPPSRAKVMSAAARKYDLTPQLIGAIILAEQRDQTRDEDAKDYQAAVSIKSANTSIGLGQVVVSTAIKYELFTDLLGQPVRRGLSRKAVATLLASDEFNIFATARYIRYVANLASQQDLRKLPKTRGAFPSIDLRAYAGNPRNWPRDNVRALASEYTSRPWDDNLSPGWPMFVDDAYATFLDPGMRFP

B1: Tsi3, truncated, without the N-terminal signal peptide (wild type) (natural protein)
chain: GVDFDKTLTHPNGLVVERPVGFDARRSAEGFRFDEGGKLRNPRQLEVQRQDAPPPPDLASRRLGDGEARYKVEEDDGGSAGSEYRLWAAKPAGARWIVVSASEQSEDGEPTFALAWALLERARLQ
notes: Tsi3, immunity protein of Tse3, Pseudomonas aeruginosa; truncated, without the N-terminal signal peptide (residues 1-20); synthetic gene in pET-22b (NdeI/XhoI); also called wild-type Tsi3; cognate immunity protein; source: E. coli BL21(DE3), purified (Ni-NTA, ion exchange, SEC)
B2: Tsi3 Q124A (natural protein)
chain: GVDFDKTLTHPNGLVVERPVGFDARRSAEGFRFDEGGKLRNPRQLEVQRQDAPPPPDLASRRLGDGEARYKVEEDDGGSAGSEYRLWAAKPAGARWIVVSASEASEDGEPTFALAWALLERARLQ
notes: Tsi3, Pseudomonas aeruginosa, mutant of the truncated construct without the signal peptide (residues 1-20)
B3: Tsi3 E103A (natural protein)
chain: GVDFDKTLTHPNGLVVERPVGFDARRSAEGFRFDEGGKLRNPRQLEVQRQDAPPPPDLASRRLGDGEARYKVEEDDGGSAGSAYRLWAAKPAGARWIVVSASEQSEDGEPTFALAWALLERARLQ
notes: as for B2
B4: Tsi3 E126A (natural protein)
chain: GVDFDKTLTHPNGLVVERPVGFDARRSAEGFRFDEGGKLRNPRQLEVQRQDAPPPPDLASRRLGDGEARYKVEEDDGGSAGSEYRLWAAKPAGARWIVVSASEQSADGEPTFALAWALLERARLQ
notes: as for B2
B5: Tsi3 S99A (natural protein)
chain: GVDFDKTLTHPNGLVVERPVGFDARRSAEGFRFDEGGKLRNPRQLEVQRQDAPPPPDLASRRLGDGEARYKVEEDDGGAAGSEYRLWAAKPAGARWIVVSASEQSEDGEPTFALAWALLERARLQ
notes: as for B2

target: T1, Tse3 (type VI secretion exported 3), …; assay: SPR; Biacore 3000, 298 K; Tse3 immobilised on a CM5 chip (2689.1-3396.3 RU); Tsi3 injected, single-cycle kinetics, five concentrations (0.02-1.62 µM for wild type, E103A, Q124A; 0.1-8.1 µM for R60A, S99A, E126A); running buffer 50 mM HEPES pH 7.5, 100 mM NaCl, 0.005% Tween-20; 1:1 Langmuir fit; details: both partners purified

In order of rising Kd:
1. B1  0.0281 µM
2. B3  0.0436 µM
3. B2  0.0588 µM
4. B4  0.417 µM
5. B5  3.29 µM

In order of falling kon:
1. B2  17300 M⁻¹ s⁻¹
2. B3  14300 M⁻¹ s⁻¹
3. B1  12900 M⁻¹ s⁻¹
4. B4  12100 M⁻¹ s⁻¹
5. B5  8990 M⁻¹ s⁻¹

target: T1, Tse3 (type VI secretion exported 3), …; assay: not stated; stoichiometry observed in solution; method not given; details: both partners purified

For B1, the “stoichiometry N” value was 1.
